The target of experiment [1] is T1, LILRB1 expressed on the surface of human natural killer cell KHYG-1 (human, UniProt Q8NHL6 24-650).
T1 construct: whole, on cells; also called LILRB1 on KHYG-1 cells; human NK cells (surface)
Nature of the experiment: flow cytometry (iQue) on KHYG-1 NK cells, antibody 50 ug/mL. The protocol: In order to test whether or not 93 antibodies selected in Example 1.4 bind LILRB1 expressed on surface of immune cells, natural killer cell (NK cell) surface binding assay was performed. A human NK cell, KHYG-1 cell (JCRB) was cultured in RPMI 1640 medium (Gibco) supplemented with 10%(w/v) of FBS (Gibco) and 100 U/mL of interleukin-2 (Novartis). KHYG-1 cells were added to a U-bottom 96-well tissue culture plate (BD Falcon) at the amount of 5×10⁴ cells/well. Each of the selected antibodies was added to the well to the final concentration of 50 μg/mL per well and incubated at 4° C. for 1 hour.
In order to see the level of LILRB1-specific binding of the selected antibodies, a human IgG4 isotype control antibody (Biolegend) was treated in the same manner. After washing with FACS buffer, the cells were treated with an anti-human Fc-biotin antibody (life technologies) and incubated at 4° C. for 1 hour. After washing with FACS buffer, the cells were treated with streptavidin PE (BD Pharmigen) and incubated at 4° C. for 30 minutes. After washing with FACS buffer, the cells were resuspended and subjected to analysis using iQue screener (Sartorius).
On the technique in general: In flow cytometry, cells or beads pass a laser one at a time.

The target of experiment [2] is T2, human LILRB1 protein (LILRB1-His, RnD systems Cat. No. 8989-T2) (human, UniProt Q8NHL6 24-458).
T2 construct: Bought protein; also called human LILRB1-His; not shown: His tag
Briefly: SPR (Biacore T200), antibody captured by anti-human IgG (Fc), LILRB1-His injected. The protocol: The binding affinities of the 93 antibodies, which were selected in Example 1.3, to the antigen, LILRB1, were measured using Biacore T200 (GE healthcare). An anti-human IgG (Fc) antibody (GE healthcare, Cat. No. BR-1008-39, final concentration of 25 μg/mL) was flowed at the flow rate of 5 μL/min for 360 seconds to be immobilized at 5000-7000 RU on Series S Sensor Chip CM5 (GE healthcare, Cat. No. BR-1005-30) using Amine Coupling Kit (GE healthcare, Cat. No. BR-1000-508).
In general terms: In SPR one partner is held on a chip, and binding of the other changes the refractive index at the surface.

In experiment [3] the target is T3, human LILRA3 overexpressed on CHO cells (human, UniProt Q8N6C8 24-439).
T3 construct: Full-length protein expressed in CHO cells; also called AAH28208
Briefly: flow cytometry (iQue screener, BL1-H channel), CHO cells overexpressing LILRA3, anti-human Fc-biotin + labelled streptavidin [panel LILRA3]. The protocol:
(§1) In order to confirm whether or not the selected antibodies bind to human LILR family proteins other than LILRB1, a cell surface binding assay was performed. The CHO cells (prepared in Example 5) expressing each of various LILR family proteins on surface were added to U-bottom 96-well tissue culture plate (BD Falcon) at the amount of 1×10⁵ cells/well. The cells in each well were treated with the selected antibody in the final concentration of 20 ug/mL and incubated at 4° C. for 60 minutes. After washing with FACS buffer, the cells were treated with anti-human Fc-biotin antibody (Invitrogen) and incubated at 4° C. for 30 minutes. After washing with FACS buffer, the cells were treated with streptavidin (BD Pharmigen) labeled with PE or FITC fluorescence and incubated at 4° C. for 30 minutes. After washing with FACS buffer, the cells were resuspended and subjected to analysis using iQue screener (Sartorius). The cells treated with each LILR protein specific antibody (Table 27) were used as a positive control, and the cells treated with human IgG4 isotype control antibody (Biolegend) were used as a negative control.

In experiment [4] the target is T4, human LILRA4 overexpressed on CHO cells (human, UniProt P59901 24-499).
T4 construct: Full-length protein expressed in CHO cells; also called NP_036408
Nature of the experiment: flow cytometry (iQue screener), CHO cells overexpressing LILRA4, anti-human Fc-biotin + streptavidin-PE [panel LILRA4]. As to the method:
as §1

The target in experiment [5] is T5, human LILRA1 overexpressed on CHO cells (human, UniProt O75019 17-489).
T5 construct: Full-length protein expressed in CHO cells; also called NP_006854
Nature of the experiment: flow cytometry (iQue screener), CHO cells overexpressing LILRA1, anti-human Fc-biotin + streptavidin-PE [panel LILRA1]. The protocol: as §1

Experiment [6] has as its target T6, human LILRA6 overexpressed on CHO cells (human, UniProt Q6PI73 24-481).
T6 construct: Full-length protein expressed in CHO cells; also called NP_001347096
Nature of the experiment: flow cytometry (iQue screener), CHO cells overexpressing LILRA6, anti-human Fc-biotin + streptavidin-PE [panel LILRA6]. As to the method: as §1

Experiment [7] deals with T7, human LILRB1 overexpressed on CHO cells (human, UniProt Q8NHL6 24-650).
T7 construct: Full-length protein expressed from a vector in CHO cells; also called AAH15731
Briefly: flow cytometry (iQue) on CHO cells overexpressing LILRB1, threefold dilutions. As to the method:
In order to determine EC₅₀ values of the antibodies prepared in Examples 1 and 4 for binding to human LILRB1-overexpressing cell lines, a cell surface binding assay was performed. Representing the prepared antibodies, EC₅₀ values of E3.1 and H11 antibodies were measured. The CHO cells prepared in Example 5, which overexpress LILRB1 on surface, were added to U-bottom 96-well tissue culture plate (BD Falcon) at the amount of 1×10⁵ cells/well. Threefold serial dilutions of E3.1 and H11 antibodies were prepared starting from the final concentrations of 600 ug/mL and 27 ug/mL, respectively. The cells were treated with each of the diluted antibodies and incubated at 4° C. for 60 minutes. After washing with FACS buffer, the cells were treated with anti-human Fc-biotin antibody (Invitrogen) and incubated at 4° C. for 30 minutes. After washing with FACS buffer, the cells were treated with streptavidin (BD Pharmigen) labeled with PE fluorescence and incubated at 4° C. for 30 minutes. After washing with FACS buffer, the cells were resuspended and subjected to analysis using iQue screener (Sartorius). EC₅₀ values were calculated using nonlinear regression formula of GraphPad Prism software, and the obtained results are shown in Table 28: […]

Experiment [8] has as its target T8, human LILRB4 overexpressed on CHO cells (human, UniProt Q8NHJ6 22-448).
T8 construct: Full-length protein expressed in CHO cells; also called NP_001265355
Briefly: flow cytometry (iQue screener), CHO cells overexpressing LILRB4, anti-human Fc-biotin + streptavidin-PE [panel LILRB4]. As to the method:
as §1

Experiment [9] addresses T9, human LILRB2 overexpressed on CHO cells (human, UniProt Q8N423 22-597).
T9 construct: Full-length protein expressed in CHO cells; also called AAH36827
Briefly: flow cytometry (iQue screener), CHO cells overexpressing LILRB2, anti-human Fc-biotin + streptavidin-PE [panel LILRB2]. The protocol:
as §1

Experiment [10] has as its target T10, human LILRA2 overexpressed on CHO cells (human, UniProt Q8N149 24-483).
T10 construct: Full-length protein expressed in CHO cells; also called AAH17412
Briefly: flow cytometry (iQue screener), CHO cells overexpressing LILRA2, anti-human Fc-biotin + streptavidin-PE [panel LILRA2]. The protocol: as §1

Experiment [11] addresses T11, human LILRB3 overexpressed on CHO cells (human, UniProt O75022 24-631).
T11 construct: Full-length protein expressed in CHO cells; also called XP_006726377
Nature of the experiment: flow cytometry (iQue screener), CHO cells overexpressing LILRB3, anti-human Fc-biotin + streptavidin-PE [panel LILRB3]. As to the method:
as §1

Experiment [12] addresses T12, human LILRB5 overexpressed on CHO cells (human, UniProt O75023 24-590).
T12 construct: Full-length protein expressed in CHO cells; also called NP_006831
Briefly: flow cytometry (iQue screener), CHO cells overexpressing LILRB5, anti-human Fc-biotin + streptavidin-PE [panel LILRB5]. The protocol: as §1

The target in experiment [13] is T13, human LILRA5 overexpressed on CHO cells (human, UniProt A6NI73 42-299).
T13 construct: Full-length protein expressed in CHO cells; also called NP_067073
Briefly: flow cytometry (iQue screener), CHO cells overexpressing LILRA5, anti-human Fc-biotin + streptavidin-PE [panel LILRA5]. The protocol:
as §1

Residue numbers refer to the chain shown, from its start.

T1 sequence (Q8NHL6 24-650): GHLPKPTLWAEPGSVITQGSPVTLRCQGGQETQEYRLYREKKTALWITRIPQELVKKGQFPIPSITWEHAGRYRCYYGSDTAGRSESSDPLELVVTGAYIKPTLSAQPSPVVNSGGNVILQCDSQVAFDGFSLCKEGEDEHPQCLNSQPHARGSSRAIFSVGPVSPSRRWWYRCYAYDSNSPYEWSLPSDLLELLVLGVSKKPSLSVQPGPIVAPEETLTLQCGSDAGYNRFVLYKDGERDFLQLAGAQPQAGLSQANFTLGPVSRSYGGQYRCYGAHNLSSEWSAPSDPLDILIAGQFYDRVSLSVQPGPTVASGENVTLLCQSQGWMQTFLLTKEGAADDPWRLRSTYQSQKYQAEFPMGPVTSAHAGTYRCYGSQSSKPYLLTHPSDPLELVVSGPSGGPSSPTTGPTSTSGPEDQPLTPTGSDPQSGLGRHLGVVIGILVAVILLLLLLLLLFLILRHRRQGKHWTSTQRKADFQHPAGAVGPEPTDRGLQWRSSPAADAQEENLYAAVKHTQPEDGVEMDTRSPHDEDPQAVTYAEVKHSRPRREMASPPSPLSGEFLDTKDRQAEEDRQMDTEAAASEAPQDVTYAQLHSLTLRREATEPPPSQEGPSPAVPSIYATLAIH
T2 sequence (Q8NHL6 24-458 limits assumed): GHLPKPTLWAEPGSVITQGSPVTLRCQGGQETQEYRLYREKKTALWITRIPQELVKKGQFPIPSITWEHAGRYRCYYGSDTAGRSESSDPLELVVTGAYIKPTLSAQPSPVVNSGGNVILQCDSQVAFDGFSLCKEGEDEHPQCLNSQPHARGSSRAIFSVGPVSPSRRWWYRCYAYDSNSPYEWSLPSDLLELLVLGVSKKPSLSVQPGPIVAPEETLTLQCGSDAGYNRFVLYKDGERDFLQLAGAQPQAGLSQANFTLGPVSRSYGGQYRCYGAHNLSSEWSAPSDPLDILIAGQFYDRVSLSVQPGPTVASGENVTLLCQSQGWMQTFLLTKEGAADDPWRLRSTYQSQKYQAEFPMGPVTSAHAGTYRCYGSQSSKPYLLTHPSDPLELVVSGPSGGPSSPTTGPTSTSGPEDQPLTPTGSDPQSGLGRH
T12 sequence (O75023 24-590 P542R limits assumed): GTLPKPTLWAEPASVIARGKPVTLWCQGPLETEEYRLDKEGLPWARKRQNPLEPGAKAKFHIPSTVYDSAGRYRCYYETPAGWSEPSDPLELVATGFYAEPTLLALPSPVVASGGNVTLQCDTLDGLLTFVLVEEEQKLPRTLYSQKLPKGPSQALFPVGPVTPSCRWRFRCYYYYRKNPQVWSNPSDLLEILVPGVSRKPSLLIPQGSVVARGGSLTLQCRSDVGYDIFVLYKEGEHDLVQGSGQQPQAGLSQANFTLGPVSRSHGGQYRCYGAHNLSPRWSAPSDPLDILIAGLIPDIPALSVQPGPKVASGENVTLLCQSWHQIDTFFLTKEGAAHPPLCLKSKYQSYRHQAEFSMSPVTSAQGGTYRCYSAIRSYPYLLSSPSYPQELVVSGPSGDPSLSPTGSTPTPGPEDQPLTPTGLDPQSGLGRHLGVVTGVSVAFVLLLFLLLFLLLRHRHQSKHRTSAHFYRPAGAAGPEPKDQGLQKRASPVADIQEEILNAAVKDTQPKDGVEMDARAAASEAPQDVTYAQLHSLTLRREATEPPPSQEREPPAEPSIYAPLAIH
T3 sequence (Q8N6C8 24-439 A105V limits assumed): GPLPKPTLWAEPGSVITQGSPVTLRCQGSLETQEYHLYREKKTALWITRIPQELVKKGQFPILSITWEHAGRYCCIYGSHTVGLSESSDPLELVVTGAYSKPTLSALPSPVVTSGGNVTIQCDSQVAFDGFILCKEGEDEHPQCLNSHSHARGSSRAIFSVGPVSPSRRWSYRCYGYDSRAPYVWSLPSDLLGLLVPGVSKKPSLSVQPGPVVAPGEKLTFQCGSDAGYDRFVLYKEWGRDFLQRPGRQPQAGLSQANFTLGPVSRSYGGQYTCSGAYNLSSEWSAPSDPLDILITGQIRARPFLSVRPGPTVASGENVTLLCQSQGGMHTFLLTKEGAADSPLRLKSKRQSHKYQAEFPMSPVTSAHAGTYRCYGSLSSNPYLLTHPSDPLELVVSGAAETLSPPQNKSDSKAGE
T13 sequence (A6NI73 42-299 limits assumed): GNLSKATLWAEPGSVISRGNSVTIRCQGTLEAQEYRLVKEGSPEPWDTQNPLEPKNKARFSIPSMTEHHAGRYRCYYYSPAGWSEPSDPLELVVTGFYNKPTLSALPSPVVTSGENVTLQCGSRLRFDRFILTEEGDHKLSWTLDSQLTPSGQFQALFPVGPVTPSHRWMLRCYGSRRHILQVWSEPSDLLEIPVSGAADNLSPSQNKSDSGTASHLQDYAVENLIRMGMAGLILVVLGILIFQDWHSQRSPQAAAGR
T11 sequence (O75022 other isoform, or with tags, fused parts or gaps limits assumed): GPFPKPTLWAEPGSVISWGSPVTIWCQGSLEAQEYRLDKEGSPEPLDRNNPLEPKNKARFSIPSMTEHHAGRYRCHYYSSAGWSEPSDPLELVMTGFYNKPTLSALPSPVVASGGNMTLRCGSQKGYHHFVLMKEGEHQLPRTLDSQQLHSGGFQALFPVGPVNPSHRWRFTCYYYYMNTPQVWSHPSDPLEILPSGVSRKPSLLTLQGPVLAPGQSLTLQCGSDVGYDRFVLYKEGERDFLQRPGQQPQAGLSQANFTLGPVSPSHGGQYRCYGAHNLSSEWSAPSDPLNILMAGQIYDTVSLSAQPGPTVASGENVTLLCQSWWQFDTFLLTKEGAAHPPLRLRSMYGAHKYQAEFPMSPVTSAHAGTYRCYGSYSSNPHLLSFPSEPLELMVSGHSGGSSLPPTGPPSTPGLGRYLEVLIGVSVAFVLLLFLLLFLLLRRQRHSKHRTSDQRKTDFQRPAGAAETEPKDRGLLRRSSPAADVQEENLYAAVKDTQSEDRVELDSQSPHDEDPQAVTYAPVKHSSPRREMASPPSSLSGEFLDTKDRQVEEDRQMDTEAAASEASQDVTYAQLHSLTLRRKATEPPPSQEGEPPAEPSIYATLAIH
T4 sequence (P59901 other isoform, or with tags, fused parts or gaps limits assumed): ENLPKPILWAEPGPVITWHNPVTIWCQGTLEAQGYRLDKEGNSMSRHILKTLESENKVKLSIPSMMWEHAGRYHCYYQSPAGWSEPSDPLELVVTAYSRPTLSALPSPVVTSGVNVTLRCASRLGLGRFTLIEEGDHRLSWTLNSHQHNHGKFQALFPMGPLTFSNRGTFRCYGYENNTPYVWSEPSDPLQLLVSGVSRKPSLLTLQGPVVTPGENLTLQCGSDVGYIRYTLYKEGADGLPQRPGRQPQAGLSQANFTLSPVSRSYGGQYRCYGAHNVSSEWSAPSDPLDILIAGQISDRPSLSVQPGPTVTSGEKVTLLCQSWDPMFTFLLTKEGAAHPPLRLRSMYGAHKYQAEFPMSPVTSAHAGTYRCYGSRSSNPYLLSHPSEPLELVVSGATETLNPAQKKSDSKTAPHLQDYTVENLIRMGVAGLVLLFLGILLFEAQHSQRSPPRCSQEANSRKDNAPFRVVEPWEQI
T7 sequence (Q8NHL6 other isoform, or with tags, fused parts or gaps limits assumed): as the sequence (Q8NHL6 24-650) above, with L45P, I119T, S132I, E602K counted along it
T8 sequence (Q8NHJ6 22-448 D223G/Q414R limits assumed): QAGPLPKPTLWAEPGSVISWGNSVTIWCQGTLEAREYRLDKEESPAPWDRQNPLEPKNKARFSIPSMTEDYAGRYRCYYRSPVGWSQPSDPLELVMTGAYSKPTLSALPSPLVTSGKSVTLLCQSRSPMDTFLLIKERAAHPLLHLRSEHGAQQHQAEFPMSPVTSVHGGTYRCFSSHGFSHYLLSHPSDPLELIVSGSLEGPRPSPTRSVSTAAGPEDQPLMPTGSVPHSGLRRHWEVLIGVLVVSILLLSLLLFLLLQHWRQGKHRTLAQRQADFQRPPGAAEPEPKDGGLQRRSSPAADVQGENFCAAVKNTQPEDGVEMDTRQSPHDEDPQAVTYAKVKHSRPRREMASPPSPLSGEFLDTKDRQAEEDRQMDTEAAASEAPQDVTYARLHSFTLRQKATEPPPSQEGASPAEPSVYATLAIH
T6 sequence (Q6PI73 24-481 limits assumed): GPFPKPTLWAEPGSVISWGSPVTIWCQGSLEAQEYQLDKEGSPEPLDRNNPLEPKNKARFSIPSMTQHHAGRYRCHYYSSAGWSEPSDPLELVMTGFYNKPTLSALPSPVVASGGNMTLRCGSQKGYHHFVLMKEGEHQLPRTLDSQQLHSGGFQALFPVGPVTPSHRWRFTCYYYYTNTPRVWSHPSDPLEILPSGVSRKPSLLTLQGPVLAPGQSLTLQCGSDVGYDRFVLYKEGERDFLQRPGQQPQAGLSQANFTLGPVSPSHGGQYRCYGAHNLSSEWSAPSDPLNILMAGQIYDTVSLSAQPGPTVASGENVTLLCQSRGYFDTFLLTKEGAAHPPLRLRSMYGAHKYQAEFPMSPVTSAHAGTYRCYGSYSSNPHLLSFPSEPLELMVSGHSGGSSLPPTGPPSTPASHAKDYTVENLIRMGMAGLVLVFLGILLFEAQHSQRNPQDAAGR

B1: anti-LILRB1 antibody H2 (antibody, human IgG4 S228P, V domains shown)
VH: QVQLVQSGAEVKKPGASVKVSCKASGYTFTSYDIHWVRQATGQGLEWMGWISAYNGNTNYAQKLQGRVTMTTDTSTSTAYMELRSLRSDDTAVYYCARDGGDAFDIWGQGTLVTVSS
VL: SYELTQDPAVSVALGQTVRITCQGDSLRNYYASWYQQKPGQAPILVISGNNKRPSGIPDRFSGSSSGDTASLTISGAQAEDEADYYCNSLDSTYNHPIFGGGTKVTVLG
notes: human IgG4, lambda light chain; also called Antibody clone H2
As usually defined, the Kd is the constant that tells how readily two partners part at equilibrium. One may read the koff as a measure of how fast the partners let go of each other. Higher therefore signals a short-lived complex. The kon is the second-order rate constant of association. As to B1, in experiment [1], the “% of population 2” value worked out at 29% and the “Mean Fluorescence Intensity” value stood at 239000. In [2], this molecule had a dissociation constant (Kd) of 16.2 nM, an off-rate (koff) of 0.0095 s⁻¹ and an on-rate constant (kon) of 586000 M⁻¹ s⁻¹.

B2: anti-LILRB1 antibody E3.1 (antibody, human IgG4 S228P, lambda)
heavy: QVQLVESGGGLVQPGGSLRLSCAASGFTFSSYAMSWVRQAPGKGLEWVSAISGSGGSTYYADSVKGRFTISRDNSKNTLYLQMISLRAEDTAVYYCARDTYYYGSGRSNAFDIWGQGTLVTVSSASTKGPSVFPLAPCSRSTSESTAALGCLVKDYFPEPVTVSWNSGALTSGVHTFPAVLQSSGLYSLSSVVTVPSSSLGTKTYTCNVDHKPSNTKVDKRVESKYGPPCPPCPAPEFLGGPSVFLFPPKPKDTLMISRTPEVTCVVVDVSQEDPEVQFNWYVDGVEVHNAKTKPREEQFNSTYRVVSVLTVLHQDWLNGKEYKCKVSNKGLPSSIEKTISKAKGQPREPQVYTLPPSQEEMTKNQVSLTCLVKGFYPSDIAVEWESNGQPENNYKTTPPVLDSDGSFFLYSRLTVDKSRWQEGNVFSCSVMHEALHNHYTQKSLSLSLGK
light: SYELTQDPAVSVALGQTVRITCQGDSLRNFYASWYQQKSGQAPVLVMYGKNNRPSGIPDRFSGSTSGNTASLTITGAQAEDEADYYCNSRDSSGSHLTGVFGGGTKVTVLGQPKANPTVTLFPPSSEELQANKATLVCLISDFYPGAVTVAWKADGSPVKAGVETTKPSKQSNNKYAASSYLSLTPEQWKSHRSYSCQVTHEGSTVEKTVAPTECS
notes: human IgG4; heavy chain of E3; also called Antibody clone E3.1
One may read the EC50 as the concentration giving half of the maximal effect. Higher therefore signals lower potency in that assay. In the case of B2, the binding result in experiment [3], in [4], in [5], in experiment [6], in experiment [8] and in experiment [9] was “no binding (tested: 20 ug/mL)” in each case. For the same molecule, the binding result in experiment [10], in experiment [11], in experiment [12] and in [13] was “no binding (tested: 20 ug/mL)” in each case. The molecule also had a half-maximal effective concentration (EC50) in experiment [7] of 7.15 nM.

B3: anti-LILRB1 antibody H11 (antibody, human IgG4 S228P, V domains shown)
VH: QVQLVQSGAEVKKPGASVKVSCKASGYTFTSYYMHWVRQAPGQGLEWMGIINPSGGSTSYAQKFQGRVTMTRDTSTSTVYMELSSLRSEDTAVYYCARDAGSSSDYWGRGTLVTVSS
VL: SYELTQDPAASVALGQTVRITCQGDSLRSYYASWYQQKPGQAPVVVIYGRNNRPSGIPDRFSGSSSGDTASLTITGAQAEDEADYYCKSRDSSGNHYVFGTGTKLTVLG
notes: human IgG4, lambda light chain; also called Antibody clone H11
On to B3, for which the binding result in experiment [3], in experiment [4], in experiment [6], in experiment [8], in experiment [11] and in experiment [12] was “no binding (tested: 20 ug/mL)” throughout. Moreover, in [13], the binding result is “no binding (tested: 20 ug/mL)”. Further, the “% of population 2” value in experiment [1] was 32.6%. Besides, the “Mean Fluorescence Intensity” value in experiment [1] came to 245000. In experiment [7], the EC50 worked out at 0.376 nM. The molecule further yielded a Kd in experiment [2] of 7.62 nM. In addition, in [2], the off-rate constant (koff) is 0.00226 s⁻¹. Also, the kon in experiment [2] was determined as 296000 M⁻¹ s⁻¹.

B4: anti-LILRB1 antibody G9 (antibody, human IgG4 S228P, V domains shown)
VH: QVQLVQPGAEVKKPGESLKISCKGSGYSFTSYWIGWVRQMPGKGLEWMGIIYPGDSDTRYSPSFQGQVTISADKSISTAYLQWSSLKASDTAMYYCASQYYDGGYYMDVWGQGTLVTVSS
VL: QSALTQPASVSGSPGQSITISCTGSSSDVGGYNYVSWYQQHPGKAPKLMIYDVSNRPSGVSDRFSGSKSGNMASLTISGLQAEDEADYYCSSYTGSSTLDVLFGGGTKLTVLG
notes: human IgG4, lambda light chain; also called Antibody clone G9
As to B4, in experiment [1], the “% of population 2” value came to 41.3% and the “Mean Fluorescence Intensity” value stood at 263000. In addition, in [2], the Kd stood at 3.05 nM, the koff worked out at 0.000436 s⁻¹ and the association rate constant (kon) was found to be 143000 M⁻¹ s⁻¹.

B5: anti-LILRB1 antibody G11 (antibody, human IgG4 S228P, V domains shown)
VH: B4 VH with P7S
VL: QSALTQPRSVSGSPGQSVTISCTGTSSDVGGYNYVSWYQQHPGKAPKLMIYDVSKRPSGVPDRFSGSKSGNTASLTISGLQAEDEADYYCSSYSSSSTLVVFGGGTKLTVLG
notes: human IgG4, lambda light chain; also called Antibody clone G11
Consider B5, for which, in [1], the “% of population 2” value worked out at 40.1% and the “Mean Fluorescence Intensity” value was determined as 263000. In experiment [2], the affinity, expressed as Kd, was 45.2 nM; the off-rate (koff) is 0.00205 s⁻¹; the kon turned out to be 45400 M⁻¹ s⁻¹.

Values taken from patent publication US20240270841A1 (LG CHEM, published 2024).
